Laboratory results published in article PMC8183676 (Molecular cell, 2020).
Each block holds one binder with its values, some of them ahead of it.

Legend:
GST-MDA5ΔN = target: T1, GST-MDA5ΔN (human, UniProt Q9BYX4 287-1025); assay: native gel or EMSA
T1 sequence (looked up): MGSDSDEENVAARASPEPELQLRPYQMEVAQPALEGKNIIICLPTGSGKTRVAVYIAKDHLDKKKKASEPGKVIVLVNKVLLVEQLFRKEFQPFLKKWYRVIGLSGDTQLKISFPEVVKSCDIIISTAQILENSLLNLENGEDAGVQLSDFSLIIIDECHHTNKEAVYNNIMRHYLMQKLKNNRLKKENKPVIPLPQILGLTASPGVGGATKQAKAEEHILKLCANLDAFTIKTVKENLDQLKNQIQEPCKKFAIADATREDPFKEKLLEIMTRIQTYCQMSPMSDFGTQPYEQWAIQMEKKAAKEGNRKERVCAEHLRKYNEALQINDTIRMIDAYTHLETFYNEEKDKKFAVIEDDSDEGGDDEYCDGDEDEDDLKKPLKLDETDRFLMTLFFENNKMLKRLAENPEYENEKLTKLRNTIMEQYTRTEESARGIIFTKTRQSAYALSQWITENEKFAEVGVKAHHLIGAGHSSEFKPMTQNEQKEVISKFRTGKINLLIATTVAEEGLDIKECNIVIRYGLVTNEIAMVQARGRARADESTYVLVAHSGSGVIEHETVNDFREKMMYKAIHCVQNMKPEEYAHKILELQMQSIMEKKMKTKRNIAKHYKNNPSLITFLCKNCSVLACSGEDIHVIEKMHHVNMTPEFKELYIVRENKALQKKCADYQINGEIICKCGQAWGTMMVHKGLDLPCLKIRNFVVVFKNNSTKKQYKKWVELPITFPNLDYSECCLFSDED

MDA5ΔN = target: T2, MDA5ΔN (human, UniProt Q9BYX4 287-1025); assay: native gel or EMSA
T2 sequence (looked up): T1 sequence (looked up)

SEC-MALS = target: the molecule itself; assay: SEC-MALS
LGP2 [1] = target: T3, LGP2 (UniProt Q96C10 1-678); assay: EMSA
T3 sequence: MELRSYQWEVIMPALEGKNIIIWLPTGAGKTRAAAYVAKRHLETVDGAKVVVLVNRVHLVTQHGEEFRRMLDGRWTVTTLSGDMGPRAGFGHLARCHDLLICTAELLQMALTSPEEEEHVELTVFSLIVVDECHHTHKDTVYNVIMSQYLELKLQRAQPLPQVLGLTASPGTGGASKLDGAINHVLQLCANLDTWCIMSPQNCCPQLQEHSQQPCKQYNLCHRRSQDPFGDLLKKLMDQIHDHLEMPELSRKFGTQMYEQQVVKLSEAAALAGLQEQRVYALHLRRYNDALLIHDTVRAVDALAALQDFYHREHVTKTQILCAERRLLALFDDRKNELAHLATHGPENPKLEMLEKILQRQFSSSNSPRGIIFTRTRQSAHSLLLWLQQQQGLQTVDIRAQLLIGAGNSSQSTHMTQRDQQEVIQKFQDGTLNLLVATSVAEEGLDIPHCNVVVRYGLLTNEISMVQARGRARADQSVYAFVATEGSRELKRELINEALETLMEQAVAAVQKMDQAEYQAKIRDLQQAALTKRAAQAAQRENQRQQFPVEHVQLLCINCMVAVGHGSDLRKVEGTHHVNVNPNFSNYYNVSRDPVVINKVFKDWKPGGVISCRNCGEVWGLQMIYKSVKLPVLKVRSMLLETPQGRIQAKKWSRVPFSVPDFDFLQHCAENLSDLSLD

TRIM14^CC-PSpry = target: T4, TRIM14^CC-PSpry (human, UniProt Q14142 59-442); assay: pull-down
T4 sequence (looked up): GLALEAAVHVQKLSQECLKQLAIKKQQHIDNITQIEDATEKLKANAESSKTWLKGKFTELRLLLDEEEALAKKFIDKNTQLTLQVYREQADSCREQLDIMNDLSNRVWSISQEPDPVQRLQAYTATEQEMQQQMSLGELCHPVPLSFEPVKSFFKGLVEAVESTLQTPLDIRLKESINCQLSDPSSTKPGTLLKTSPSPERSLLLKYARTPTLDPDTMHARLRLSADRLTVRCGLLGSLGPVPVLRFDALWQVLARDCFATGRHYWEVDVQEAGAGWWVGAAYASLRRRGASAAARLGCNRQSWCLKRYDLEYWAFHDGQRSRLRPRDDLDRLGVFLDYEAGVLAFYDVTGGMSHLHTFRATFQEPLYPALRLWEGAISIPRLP

[2] = target: T5, MDA5ΔN, fluorescein-labelled (human, UniProt Q9BYX4 287-1025, fluorescein-conjugated peptide (LPETGG) joined to the N-terminus with sortase A); assay: native gel or EMSA
T5 sequence (looked up): T1 sequence (looked up)

[3] = target: T6, full-length MDA5, fluorescein-labelled (human, UniProt Q9BYX4 1-1025, fluorescein-conjugated peptide (LPETGG) joined to the N-terminus with sortase A); assay: native gel or EMSA
T6 sequence (looked up): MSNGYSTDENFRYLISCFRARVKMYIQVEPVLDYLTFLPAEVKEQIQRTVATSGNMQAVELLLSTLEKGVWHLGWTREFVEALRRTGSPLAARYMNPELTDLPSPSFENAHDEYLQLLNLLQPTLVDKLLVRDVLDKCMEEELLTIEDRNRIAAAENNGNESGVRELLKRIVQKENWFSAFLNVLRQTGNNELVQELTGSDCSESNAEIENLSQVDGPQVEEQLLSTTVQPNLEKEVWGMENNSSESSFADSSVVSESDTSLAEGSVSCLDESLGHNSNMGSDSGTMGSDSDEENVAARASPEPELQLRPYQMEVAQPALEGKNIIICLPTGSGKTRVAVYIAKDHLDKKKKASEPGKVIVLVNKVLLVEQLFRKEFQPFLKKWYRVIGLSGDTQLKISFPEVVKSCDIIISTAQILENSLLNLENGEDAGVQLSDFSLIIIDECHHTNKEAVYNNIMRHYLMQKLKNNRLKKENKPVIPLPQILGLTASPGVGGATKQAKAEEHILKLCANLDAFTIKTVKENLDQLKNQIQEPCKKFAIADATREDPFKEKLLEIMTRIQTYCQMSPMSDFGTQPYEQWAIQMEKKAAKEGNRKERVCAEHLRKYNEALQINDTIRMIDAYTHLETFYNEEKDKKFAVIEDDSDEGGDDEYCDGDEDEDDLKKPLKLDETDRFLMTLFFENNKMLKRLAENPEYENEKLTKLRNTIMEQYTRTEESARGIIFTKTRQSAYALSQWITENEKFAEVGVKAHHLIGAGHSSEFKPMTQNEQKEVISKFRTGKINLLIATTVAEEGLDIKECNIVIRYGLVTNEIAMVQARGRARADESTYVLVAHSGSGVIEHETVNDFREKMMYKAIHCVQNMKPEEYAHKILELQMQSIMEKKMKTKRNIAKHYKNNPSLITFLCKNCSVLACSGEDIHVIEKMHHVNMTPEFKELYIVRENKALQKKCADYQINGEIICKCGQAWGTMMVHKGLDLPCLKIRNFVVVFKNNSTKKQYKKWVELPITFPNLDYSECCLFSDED

LGP2 [4] = target: T7, LGP2 (human, UniProt Q96C10 1-678); assay: native gel or EMSA
T7 sequence (looked up): T3 sequence

B1: TRIM65 CC-PSpry, fluorescein-labelled (domain or fragment, human, UniProt Q6PJ69 125-517, looked up)
chain: HERALLDAERLKREAQLRASLEVTQQQATQAEGQLLELRKQSSQIQNSACILASWVSGKFSSLLQALEIQHTTALRSIEVAKTQALAQARDEEQRLRVHLEAVARHGCRIRELLEQVDEQTFLQESQLLQPPGPLGPLTPLQWDEDQQLGDLKQLLSRLCGLLLEEGSHPGAPAKPVDLAPVEAPGPLAPVPSTVCPLRRKLWQNYRNLTFDPVSANRHFYLSRQDQQVKHCRQSRGPGGPGSFELWQVQCAQSFQAGHHYWEVRASDHSVTLGVSYPQLPRCRLGPHTDNIGRGPCSWGLCVQEDSLQAWHNGEAQRLPGVSGRLLGMDLDLASGCLTFYSLEPQTQPLYTFHALFNQPLTPVFWLLEGRTLTLCHQPGAVFPLGPQEEVLS
modifications: fluorescein-conjugated peptide (LPETGG) joined to the N-terminus with sortase A
binding result (GST-MDA5ΔN): binds

B2: TRIM65 CC-PSpry (domain or fragment, human, UniProt Q6PJ69 125-517, looked up)
chain: B1 chain
Kd (MDA5ΔN): 171 nM
stoichiometry N (SEC-MALS): 2

B3: 15 bp dsRNA (dsRNA)
RNA 1: AGGGCCCGGGAUGCU
RNA 2: AGCAUCCCGGGCCCU
binding result (LGP2 [1]): binds

Results, then the binder that gave them:

binding result (TRIM14^CC-PSpry): binds
B4: GST-LGP2^Hel2i2 (domain or fragment, human, UniProt Q96C10 211-487, looked up)
chain: SQQPCKQYNLCHRRSQDPFGDLLKKLMDQIHDHLEMPELSRKFGTQMYEQQVVKLSEAAALAGLQEQRVYALHLRRYNDALLIHDTVRAVDALAALQDFYHREHVTKTQILCAERRLLALFDDRKNELAHLATHGPENPKLEMLEKILQRQFSSSNSPRGIIFTRTRQSAHSLLLWLQQQQGLQTVDIRAQLLIGAGNSSQSTHMTQRDQQEVIQKFQDGTLNLLVATSVAEEGLDIPHCNVVVRYGLLTNEISMVQARGRARADQSVYAFVATEGS

binding result [2]: binds
binding result [3]: binds
binding result (MDA5ΔN): binds
B5: TRIM65 (natural protein, human, UniProt Q6PJ69 1-517, looked up)
chain: MAAQLLEEKLTCAICLGLYQDPVTLPCGHNFCGACIRDWWDRCGKACPECREPFPDGAELRRNVALSGVLEVVRAGPARDPGPDPGPGPDPAARCPRHGRPLELFCRTEGRCVCSVCTVRECRLHERALLDAERLKREAQLRASLEVTQQQATQAEGQLLELRKQSSQIQNSACILASWVSGKFSSLLQALEIQHTTALRSIEVAKTQALAQARDEEQRLRVHLEAVARHGCRIRELLEQVDEQTFLQESQLLQPPGPLGPLTPLQWDEDQQLGDLKQLLSRLCGLLLEEGSHPGAPAKPVDLAPVEAPGPLAPVPSTVCPLRRKLWQNYRNLTFDPVSANRHFYLSRQDQQVKHCRQSRGPGGPGSFELWQVQCAQSFQAGHHYWEVRASDHSVTLGVSYPQLPRCRLGPHTDNIGRGPCSWGLCVQEDSLQAWHNGEAQRLPGVSGRLLGMDLDLASGCLTFYSLEPQTQPLYTFHALFNQPLTPVFWLLEGRTLTLCHQPGAVFPLGPQEEVLS

binding result (LGP2 [4]): binds
B6: GST-TRIM14^PSpry (domain or fragment, human, UniProt Q14142 238-442, looked up)
chain: QLSDPSSTKPGTLLKTSPSPERSLLLKYARTPTLDPDTMHARLRLSADRLTVRCGLLGSLGPVPVLRFDALWQVLARDCFATGRHYWEVDVQEAGAGWWVGAAYASLRRRGASAAARLGCNRQSWCLKRYDLEYWAFHDGQRSRLRPRDDLDRLGVFLDYEAGVLAFYDVTGGMSHLHTFRATFQEPLYPALRLWEGAISIPRLP
